Measured values from patent US11180770B2, “HPPD variants and methods of use” (BASF Agricultural Solutions Seed US LLC, priority 2017, dated 2021).

System: HPPD polypeptides
Assay: coupled HPPD activity assay: turnover and residual turnover in crude extracts
Assay type: biochemical, Pseudomonas fluorescens
Conditions: for Residual turnover [%]: 100 μM Cmpd. 1, signal change with inhibitor divided by signal change without inhibitor; for Turnover: absence of Cmpd. 1, kinetic changes in absorbance (OD) at 320 nm, 30 min; for Turnover / Residual turnover: high substrate concentration; for Residual turnover: presence of 100 μM Cmpd. 1, changes in absorbance (OD) at 320 nm
Method: The activity of HPPD polypeptides was determined in absence or presence of HPPD inhibitors using the coupled HPPD activity assay (FIG. 1).
For the determination of the residual activity, the apparent kinetic constant (kapp) of the determined substrate conversion was measured as kinetic changes in absorbance (OD) at 320 nm in a coupled assay, in that homogentisate (HGA) formed by HPPD from HPP is directly converted into the well absorbing molecule maleylacetoacetate (MAA) by a second enzyme homogentisate dioxygenase (HGD), applied in excess uniformly in all assays (see FIG. 1). The measurements were performed in 384 micro titer plates (Greiner Bio-One GmbH, Frickenhausen, Germany) by plate readers (Tecan infinite M1000 or M1000PRO, Tecan, Männedorf, Switzerland). The kcat/kM ratio of an enzymatic activity is proportional to the apparent kinetic constant kapp and is proportional to kcat/kM*[E] ([E]=enzyme concentration). […] As both kapp measurements in the presence and absence of inhibitor were performed by use of the identical enzyme sample, crude or purified, and thereby at the same enzyme concentration, the enzyme concentration eliminates from the calculation of residual activity and the ratio of both kapp directly indicates the change of kM due to the inhibition.
The assay solution used for determination of residual activities in raw HPPD polypeptide samples was composed by 200 mM sodium phosphate (Merck, Darmstadt, Germany, pH 7.0), 5 mM MgCl2 (Merck, Darmstadt, Germany), 20 mM ascorbate (Sigma-Aldrich, St. Louis, USA), 1 mM DTT (Sigma-Aldrich, St. Louis, USA), 0.1% Pluronic F-68 (Sigma-Aldrich, St. Louis, USA), 40 μM FeSO4 (Sigma-Aldrich, St. Louis, USA), about 8 mg/ml purified HGD and 500 μM HPP from a 1 M stock solution in DMSO (Sigma-Aldrich, St. Louis, USA) and equilibrated for 20 min on ice. For every HPPD polypeptide sample two assays were performed in quadruplets, whereby 5 μl of HPPD polypeptide sample were mixed firstly with 5 μl buffer (1×BugBuster®; (Merck, Darmstadt, Germany); in 140 mM Tris, pH 7.8, with 1:25000 diluted BNase®; Qiagen, Hilden, Germany)) or 5 μl inhibitor diluted in the same buffer from a 0.1 M stock solution in DMSO (200 μM resulting in 100 μM in the HPPD polypeptide/inhibitor sample) in the reference and inhibition assay, respectively, and subsequently with 10 μl assay solution. The change in absorbance at 320 nm was followed in 1 min intervals for 30 min. The kapp values were calculated as signal slope over time in the early phase of the kinetic reaction, usually for the first 5-10 minutes of the measurements. Additionally and according to the calculated residual activity, the total conversion, i.e. the absolute change in signal, in the 30 min timeframe was monitored as measure of turnover, and a residual turnover was calculated by dividing the change in signal in the presence of inhibitor by the change in signal in the reference sample without inhibitor.
Residual turnover were determined according to Example 3 by measuring total change in signal in the presence and absence of Cmpd. 1 (2-chloro-3-(methylsulfanyl)-N-(1-methyl-1H-tetrazol-5-yl)-4-(trifluoromethyl)benzamide). For each mutant HPPD polypeptide, the total change in signal without HPPD inhibitor herbicides served for normalization of the total change in signal in the presence of the herbicide.

| Molecule | Residual turnover [%] | Turnover | Residual turnover |
| --- | --- | --- | --- |
| 50 (protein, mutant HPPD polypeptide) MADLYENPMGLMGFEFIEFASPTPGTLEPIFEIMGFTKVATHRSKNVHLYRQGEINLILNNEPNSIASYFAAEHGPSVCGMAFRVKDSQKAYNRALELGAQPIHIDTGPMELNLPAIKGIGGAPLYLIDRFGEGSSIYDIDFVYLEGVERNPVGAGLKVIDHLTHNVYRGRMVYWANFYEKLFNFREARYFDIKGEYTGLTSKAMSAPDGMIRIPLNEESSKGAGQIEEFLMQFNGEGIQHVAFLTDDLVKTWDALKKIGMRFMTAPSDNYYEMLEGRLPDHGEPVDQLQARGILLDGSSVEGDKRLLLQIFSETLMGPVFFEFIQRKGDDGFGPHSFKVLFEQMERDQVRRGVLTAD | 44% | 0.315 | 0.138 |
| 52 (protein, mutant HPPD polypeptide) MADLYENPMGLMGFEFIEFASPTPGTLEPIFEIMGFTKVATHRSKNVHLYRQGEINLILNNEPNSIASYFAAEHGPSVCGMAFRVKDSQKAYNRALELGAQPIHIDTGPMELNLPAIKGIGGAPLYLIDRFGEGSSIYDIDFVYLEGVERNPVGAGLKVIDHLTHNVYRGRMVYWANFYEKLFNFREARYFDIKGEYTGLTSKAMSAPDGMIRIPLNEESSKGAGQIEEFLMQFNGEGIQHVAFLTDDLVKTWDALKKIGMRFMTAPADNYYEMLEGRLPDHGEPVDQLQARGILLDGSSVEGDKRLLLQIFSETLMGPVFFEFIQRKGDDGFGPDSFKVLFEQIERDQVRRGVLTAD | 47% | 0.189 | 0.088 |
| 56 (protein, mutant HPPD polypeptide) MADLYENPMGLMGFEFIEFASPTPGTLEPIFEIMGFTKVATHRSKNVHLYRQGEINLILNNEPNSIASYFAAEHGPSVCGMAFRVKDSQKAYNRALELGAQPIHIDTGPMELNLPAIKGIGGAPLYLIDRFGEGSSIYDIDFVYLEGVERNPVGAGLKVIDHLTHNVYRGRMVYWANFYEKLFNFREARYFDIKGEYTGLTSKAMSAPDGMIRIPLNEESSKGAGQIEEFLMQFNGEGIQHVAFLTDDLVKTWDALKKIGMRFMTAPADNYYEMLEGRLPDHGEPVDQLQARGILLDGSSVEGDKRLLLQIFSETLMGPVFFEFIQRKGDDGFGPHSFKVLFEQIERDQVRRGVLTAD | 57% | 0.152 | 0.086 |
| 51 (protein, mutant HPPD polypeptide) MADLYENPMGLMGFEFIEFASPTPGTLEPIFEIMGFTKVATHRSKNVHLYRQGEINLILNNEPNSIASYFAAEHGPSVCGMAFRVKDSQKAYNRALELGAQPIHIDTGPMELNLPAIKGIGGAPLYLIDRFGEGSSIYDIDFVYLEGVERNPVGAGLKVIDHLTHNVYRGRMVYWANFYEKLFNFREARYFDIKGEYTGLTSKAMSAPDGMIRIPLNEESSKGAGQIEEFLMQFNGEGIQHVAFLTDDLVKTWDALKKIGMRFMTAPADNYYEMLEGRLPDHGEPVDQLQARGILLDGSSVEGDKRLLLQIFSETLMGPVFFEFIQRKGDDGFGPDSFKVLFESKERDQVRRGVLTAD | 56% | 0.131 | 0.074 |
| 58 (protein, mutant HPPD polypeptide) MADLYENPMGLMGFEFIEFASPTPGTLEPIFEIMGFTKVATHRSKNVHLYRQGEINLILNNEPNSIASYFAAEHGPSVCGMAFRVKDSQKAYNRALELGAQPIHIDTGPMELNLPAIKGIGGAPLYLIDRFGEGSSIYDIDFVYLEGVERNPVGAGLKVIDHLTHNVYRGRMVYWANFYEKLFNFREARYFDIKGEYTGLTSKAMSAPDGMIRIPLNEESSKGAGQIEEFLMQFNGEGIQHVAFLTDDLVKTWDALKKIGMRFMTAPADSYYEMLEGRLPDHGEPVDQLQARGILLDGSSVEGDKRLLLQIFSETLMGPVFFEFIQRKGDDGFGPDSFKVLFESIERDQVRRGVLTAD | 45% | 0.144 | 0.065 |
| 54 (protein, mutant HPPD polypeptide) MADLYENPMGLMGFEFIEFASPTPGTLEPIFEIMGFTKVATHRSKNVHLYRQGEINLILNNEPNSIASYFAAEHGPSVCGMAFRVKDSQKAYNRALELGAQPIHIDTGPMELNLPAIKGIGGAPLYLIDRFGEGSSIYDIDFVYLEGVERNPVGAGLKVIDHLTHNVYRGRMVYWANFYEKLFNFREARYFDIKGEYTGLTSKAMSAPDGMIRIPLNEESSKGAGQIEEFLMQFNGEGIQHVAFLTDDLVKTWDALKKIGMRFMTAPADNYYEMLEGRLPDHGEPVDQLQARGILLDGSSVEGDKRLLLQIFSETLMGPVFFEFIQRKGDDGFGPDSFKVLFEQKERDQVRRGVLTAD | 66% | 0.089 | 0.059 |
| 59 (protein, mutant HPPD polypeptide) MADLYENPMGLMGFEFIEFASPTPGTLEPIFEIMGFTKVATHRSKNVHLYRQGEINLILNNEPNSIASYFAAEHGPSVCGMAFRVKDSQKAYNRALELGAQPIHIDTGPMELNLPAIKGIGGAPLYLIDRFGEGSSIYDIDFVYLEGVERNPVGAGLKVIDHLTHNVYRGRMVYWANFYEKLFNFREARYFDIKGEYTGLTSKAMSAPDGMIRIPLNEESSKGAGQIEEFLMQFNGEGIQHVAFLTDDLVKTWDALKKIGMRFMTAPADSYYEMLEGRLPDHGEPVDQLQARGILLDGSSVEGDKRLLLQIFSETLMGPVFFEFIQRKGDDGFGPDSFKVLFEQKERDQVRRGVLTAD | 56% | 0.131 | 0.074 |
| 55 (protein, mutant HPPD polypeptide) MADLYENPMGLMGFEFIEFASPTPGTLEPIFEIMGFTKVATHRSKNVHLYRQGEINLILNNEPNSIASYFAAEHGPSVCGMAFRVKDSQKAYNRALELGAQPIHIDTGPMELNLPAIKGIGGAPLYLIDRFGEGSSIYDIDFVYLEGVERNPVGAGLKVIDHLTHNVYRGRMVYWANFYEKLFNFREARYFDIKGEYTGLTSKAMSAPDGMIRIPLNEESSKGAGQIEEFLMQFNGEGIQHVAFLTDDLVKTWDALKKIGMRFMTAPADNYYEMLEGRLPDHGEPVDQLQARGILLDGSSVEGDKRLLLQIFSETLMGPVFFEFIQRKGDDGFGPHSFKVLFESKERDQVRRGVLTAD | 50% | 0.189 | 0.095 |
| 57 (protein, mutant HPPD polypeptide) MADLYENPMGLMGFEFIEFASPTPGTLEPIFEIMGFTKVATHRSKNVHLYRQGEINLILNNEPNSIASYFAAEHGPSVCGMAFRVKDSQKAYNRALELGAQPIHIDTGPMELNLPAIKGIGGAPLYLIDRFGEGSSIYDIDFVYLEGVERNPVGAGLKVIDHLTHNVYRGRMVYWANFYEKLFNFREARYFDIKGEYTGLTSKAMSAPDGMIRIPLNEESSKGAGQIEEFLMQFNGEGIQHVAFLTDDLVKTWDALKKIGMRFMTAPADNYYEMLEGRLPDHGEPVDQLQARGILLDGSSVEGDKRLLLQIFSETLMGPVFFEFIQRKGDDGFGPHSFKVLFEQKERDQVRRGVLTAD | 59% | 0.167 | 0.099 |
| 53 (protein, mutant HPPD polypeptide) MADLYENPMGLMGFEFIEFASPTPGTLEPIFEIMGFTKVATHRSKNVHLYRQGEINLILNNEPNSIASYFAAEHGPSVCGMAFRVKDSQKAYNRALELGAQPIHIDTGPMELNLPAIKGIGGAPLYLIDRFGEGSSIYDIDFVYLEGVERNPVGAGLKVIDHLTHNVYRGRMVYWANFYEKLFNFREARYFDIKGEYTGLTSKAMSAPDGMIRIPLNEESSKGAGQIEEFLMQFNGEGIQHVAFLTDDLVKTWDALKKIGMRFMTAPADNYYEMLEGRLPDHGEPVDQLQARGILLDGSSVEGDKRLLLQIFSETLMGPVFFEFIQRKGDDGFGPDSFKVLFEQVERDQVRRGVLTAD | 54% | 0.199 | 0.107 |
